# Laboratory results taken from PMC5741625, “Methylation-regulated decommissioning of multimeric PP2A complexes” (Nature Communications, 2017).
# Columns and labels:
# [1] = target: PP2A scaffold subunit (Homo sapiens) (UniProt P30153); conditions: cited from earlier work
# [2] = target: GST-tagged methylated PP2A core enzyme (GST-Aα bound to carboxyl-methylated Cα) (human, UniProt P30153 8-589; P67775 1-309, carboxyl-methylated C-terminus (L309, the last residue of PP2Ac)); test: cell-based or functional assay
# [3] = target: T1, PP2A catalytic subunit Cα (1-309) (human, UniProt P67775 1-309); test: not stated; Supplementary Fig. 6; TIPRL with PP2Ac or the scaffold subunit alone; conditions: both partners purified
# T1 construct: source: Hi-5 insect cells (baculovirus), purified (Ni-NTA, Source 15Q)
# [4] = target: T2, PP2A scaffold subunit (Aα) alone, as tested against TIPRL in Supplementary Fig. 6b (human, UniProt P30153 8-589); test: as above; conditions: both partners purified
# T2 construct: PP2A scaffold subunit Aα, human; Aα (8-589) is named for biochemical experiments; source: E. coli BL21(DE3), purified (glutathione resin, Source 15Q)
# [5] = target: T3, GST-tagged unmethylated PP2A core enzyme (GST-Aα bound to Cα) (human, UniProt P30153 8-589; P67775 1-309); test: BLI + pull-down; BLI: anti-GST sensors loaded with 150 nM GST-PP2A-AC dimer, TIPRL 0-30 μM, 300 s association and 300 s dissociation, 1:1 model; pull-down of titrated TIPRL by GST-tagged core enzyme on GS4B; conditions: both partners purified
# T3 construct: PP2A scaffold subunit Aα, human, residues 8-589; The methods also speak of full-length Aα in pGEX-2T; also called GST-PP2A core enzyme; GST-PP2A-AC dimer; source: GST-Aα: E. coli BL21(DE3), purified (glutathione resin, Source 15Q); Cα: Hi-5 insect cells (baculovirus), purified (Ni-NTA, Source 15Q)
# [6] = target: T4, PP2A core enzyme (Aα 8-589 and Cα 1-309) as crystallized with TIPRL (human, UniProt P30153 8-589; P67775 1-309, selenomethionine-labeled); test: crystal structure; PP2A-TIPRL complex, sitting drop, 18 °C, 0.1 M citric acid pH 5.2, 9% PEG 4000, 0.2 M sodium acetate; 3.8 Å; four copies in the asymmetric unit; conditions: both partners purified
# T4 construct: PP2A scaffold subunit Aα, human, residues 8-589; also called PP2A AC dimer; source: Aα: E. coli BL21(DE3); Cα: Hi-5 insect cells; assembled on glutathione resin, released by on-column thrombin cleavage, purified by ion exchange
# [7] = target: T5, PP2A scaffold subunit Aα (8-589), as in the crystal of the PP2A-TIPRL complex (human, UniProt P30153 8-589, selenomethionine-labeled); test: as above; conditions: both partners purified
# T5 construct: PP2A scaffold subunit Aα, human, residues 8-589; also called PP2A-A; A subunit; source: E. coli BL21(DE3), purified; GST removed by thrombin
# [8] = target: T1, PP2A catalytic subunit Cα (1-309); test: as above; conditions: both partners purified
# T1 sequence (P67775 whole entry): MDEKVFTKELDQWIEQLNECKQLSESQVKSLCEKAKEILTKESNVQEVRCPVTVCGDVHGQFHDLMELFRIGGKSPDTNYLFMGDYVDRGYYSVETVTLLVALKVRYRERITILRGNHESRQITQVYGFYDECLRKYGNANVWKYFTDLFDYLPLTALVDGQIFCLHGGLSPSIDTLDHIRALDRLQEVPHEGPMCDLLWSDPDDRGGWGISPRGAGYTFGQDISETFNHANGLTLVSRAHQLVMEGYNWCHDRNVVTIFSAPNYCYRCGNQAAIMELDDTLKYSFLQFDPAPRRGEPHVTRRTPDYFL
# PP2Ac, sequence (P67775 whole entry): as above
# T3 sequence (P30153 8-589, chain 1 of 2): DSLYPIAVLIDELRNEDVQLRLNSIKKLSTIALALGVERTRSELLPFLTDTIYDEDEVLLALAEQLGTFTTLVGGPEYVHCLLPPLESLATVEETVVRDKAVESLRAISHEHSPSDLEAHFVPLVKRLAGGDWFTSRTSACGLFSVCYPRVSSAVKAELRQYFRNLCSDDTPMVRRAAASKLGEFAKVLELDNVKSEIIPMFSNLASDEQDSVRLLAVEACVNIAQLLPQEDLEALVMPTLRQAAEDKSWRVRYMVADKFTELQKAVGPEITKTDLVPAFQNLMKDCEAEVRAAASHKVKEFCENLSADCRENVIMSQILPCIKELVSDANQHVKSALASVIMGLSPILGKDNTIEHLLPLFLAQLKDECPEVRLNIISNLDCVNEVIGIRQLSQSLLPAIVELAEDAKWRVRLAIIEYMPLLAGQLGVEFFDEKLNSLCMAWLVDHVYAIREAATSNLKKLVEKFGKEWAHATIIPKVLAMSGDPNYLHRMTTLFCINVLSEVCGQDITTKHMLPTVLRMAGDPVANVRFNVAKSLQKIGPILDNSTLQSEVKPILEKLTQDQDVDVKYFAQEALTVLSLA
# T3 sequence (P67775 whole entry, chain 2 of 2, the tested form may be a part): as the sequence (P67775 whole entry) above
# T5 sequence (P30153 8-589, one chain of several): as the sequence (P30153 8-589, chain 1 of 2) above
# T4 sequence (P30153 8-589, chain 1 of 2): as above
# T4 sequence (P67775 whole entry, chain 2 of 2, the tested form may be a part): as the sequence (P67775 whole entry) above
# T2 sequence (P30153 8-589): as the sequence (P30153 8-589, chain 1 of 2) above
# GST-tagged methylated PP2A core enzyme (GST-Aα bound to carboxyl-methylated Cα), sequence (P30153 8-589, chain 1 of 2): as above
# GST-tagged methylated PP2A core enzyme (GST-Aα bound to carboxyl-methylated Cα), sequence (P67775 whole entry, chain 2 of 2): as the sequence (P67775 whole entry) above
# PP2A scaffold subunit (Homo sapiens), sequence (P30153 2-589): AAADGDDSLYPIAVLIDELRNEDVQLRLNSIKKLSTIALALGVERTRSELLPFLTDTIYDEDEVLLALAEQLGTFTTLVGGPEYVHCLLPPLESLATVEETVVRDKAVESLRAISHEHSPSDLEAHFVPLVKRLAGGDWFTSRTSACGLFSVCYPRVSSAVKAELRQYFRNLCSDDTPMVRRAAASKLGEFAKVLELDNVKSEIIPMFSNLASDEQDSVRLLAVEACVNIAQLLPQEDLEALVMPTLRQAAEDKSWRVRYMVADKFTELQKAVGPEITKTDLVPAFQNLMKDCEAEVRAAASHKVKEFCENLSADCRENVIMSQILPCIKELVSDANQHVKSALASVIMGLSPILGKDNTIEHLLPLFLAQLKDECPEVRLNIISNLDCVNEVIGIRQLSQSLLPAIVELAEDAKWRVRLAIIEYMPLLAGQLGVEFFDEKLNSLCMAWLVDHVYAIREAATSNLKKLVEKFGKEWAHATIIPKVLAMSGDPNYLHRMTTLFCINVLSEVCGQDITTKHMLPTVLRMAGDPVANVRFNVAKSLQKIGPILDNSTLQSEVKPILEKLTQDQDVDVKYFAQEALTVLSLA
molecule,measurement,setting,value
PP2Ac (from UniProt P67775),Kd,[1],5 nM
"TIPRL (TOR signaling pathway regulator), full length, wild type (natural protein, UniProt Q8BH58 1-271, looked up, TIPRL, full length, for biochemical experiments; Cloned into pQLinkH; His6-tag removed by TEV protease; also called WT TIPRL; source: E. coli BL21 (DE3), purified (Ni-NTA, Source 15Q, Superdex 200)) MMIHGFQSSHQDFSFGPWKLTASKTHIMKSADVEKLADELHMPSLPEMMFGDNVLRIQHGSGFGIEFNATDALRCVNNYQGMLKVACAEEWQESRTEGEHSKEVIKPYDWTYTTDYKGTLLGESLKLKVVPTTDHIDTEKLKAREQIKFFEEVLLFEDELHDHGVSSLSVKIRVMPSSFFLLLRFFLRIDGVLIRMNDTRLYHEADKTYMLREYTSRESKIANLMHVPPSLFTEPNEISQYLPIKEAVCEKLVFPERIDPNPVDSQSTPSE",fold increase of the IC50 of TIPRL for phosphatase activity upon carboxylmethylation of the PP2A core enzyme,[2],~30 fold
same,Kd,[3],~600 nM
same,Kd,[4],~10000 nM
same,Kd,[5],~310 nM
"mouse TIPRL (12-259) (domain or fragment, UniProt Q8BH58 12-259, looked up, TIPRL, mouse, residues 12-259; also called native TIPRL (12-259); source: E. coli BL21 (DE3), purified (Ni-NTA, Source 15Q, Superdex 200)) DFSFGPWKLTASKTHIMKSADVEKLADELHMPSLPEMMFGDNVLRIQHGSGFGIEFNATDALRCVNNYQGMLKVACAEEWQESRTEGEHSKEVIKPYDWTYTTDYKGTLLGESLKLKVVPTTDHIDTEKLKAREQIKFFEEVLLFEDELHDHGVSSLSVKIRVMPSSFFLLLRFFLRIDGVLIRMNDTRLYHEADKTYMLREYTSRESKIANLMHVPPSLFTEPNEISQYLPIKEAVCEKLVFPERID",binding result,[6],binds
same,binding result,[7],binds
same,binding result,[8],binds
